# Patent publication US20220025003A1, “REAGENTS AND METHODS FOR CONTROLLING PROTEIN FUNCTION AND INTERACTION” (University of Washington, priority 2018, published 2022)
# Ends that are not written are not given here.
# Columns and labels:
# [1] = molecular target: NS3aH1-VPR, cells treated with danoprevir (hepatitis C virus); assay: cell-based or functional assay
# [2] = molecular target: NS3aH1-VPR, cells treated with grazoprevir (hepatitis C virus); assay: cell-based or functional assay
# [3] = molecular target: NS3a (active), Avi-His6-NS3a catalytically active; assay: fluorescence polarization; FB50; conditions: chains peptide; modification not given
# [4] = molecular target: NS3a (active), Avi-His6-NS3a catalytically active; assay: fluorescence polarization; FB50; conditions: chains peptide; modification not given; remark: listed apart in the source
binder,measurement,setting,value
NLS-PCP-DNCR2 (from NLS-PCP-DNCR2-P2a-BFP) (designed binder) MPKKKRKVGSMSKTIVLSVGEATRTLTEIQSTADRQIFEEKVGPLVGRLRLTASLRQNGAKTAYRVNLKLDQADVVDSGLPKVRYTQVWSHDVTIVANSTEASRKSLYDLTKSLVATSQVEDLVVNLVPLGRGSGSGSSDEEEARELIERAKEAAERAQEAAERTGDPRVRELARELKRLAQEAAEEVKRDPSSSDVNEALKLIVEAIEAAVDALEAAERTGDPEVRELARELVRLAVEAAEEVQRNPSSSDVNEALHSIVYAIEAAIFALEAAERTGDPEVRELARELVRLAVEAAEEVQRNPSSRNVEHALMRIVLAIYLAEENLREAEESGDPEKREKARERVREAVERAEEVQRDPSGWLNHEQKLISEEDLGSGATNFSLLKQAGDVEENPG,"EC50 of the danoprevir titration, GFP fluorescence",[1],0.79 nM
NLS-MCP-GNCR1 (from NLS-MCP-GNCR1-P2a-BFP) (designed binder) MPKKKRKVGSMASNFTQFVLVDNGGTGDVTVAPSNFANGIAEWISSNSRSQAYKVTCSVRQSSAQNRKYTIKVEVPKGAWRSYLNMELTIPIFATNSDCELIVKAMQGLLKDGNPIPSAIAANSGIYGSGGSGDIEKLCKKAEEEAKEAQEKADELRQRHPDSQAAEDAEDLANLAVAAVLTACLLAQEHPNADIAKLCIKAASEAAEAASKAAELAQRHPDSQAARDAIKLASQAARAVILAIMLAAENPNADIAKLCIKAASEAAEAASKAAELAQRHPDSQAARDAIKLASQAAEAVERAIWLAAENPNADIAKKCIKAASEAAEEASKAAEEAQRHPDSQKARDEIKEASQKAEEVKERCKSEQKLISEEDLGSGATNFSLLKQAGDVEENPG,"EC50 of the grazoprevir titration, CXCR4 immunofluorescence",[2],0.16 nM
GSGSGELDELVYLLDGPGYDPIHSD (not fully specified (N-terminus)) [FAM-ANR],EC50,[3],30 nM
same,EC50,[4],40 nM
